Measured values taken from publication PMC7307139.

Molecular target: T1, vesicular stomatitis virus (VSV) phosphoprotein (P), wild type (vesicular stomatitis virus (VSV)), P03520
T1 chain: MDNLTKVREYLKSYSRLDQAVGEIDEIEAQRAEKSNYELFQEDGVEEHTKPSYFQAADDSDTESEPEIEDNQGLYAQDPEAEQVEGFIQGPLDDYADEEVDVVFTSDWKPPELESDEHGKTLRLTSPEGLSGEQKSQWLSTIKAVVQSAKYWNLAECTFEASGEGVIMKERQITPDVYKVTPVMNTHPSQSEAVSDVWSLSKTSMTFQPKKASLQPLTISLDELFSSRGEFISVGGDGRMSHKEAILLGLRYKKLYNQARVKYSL
Assay: SEC-MALS
Conditions: remark: other sources report otherwise

B1: vesicular stomatitis virus (VSV) phosphoprotein (P), wild type, P03520 1-265 (natural protein)
chain: T1 chain
For B1, the stoichiometry N was 2.
